Test system: pCMV.Luciferase reporter gene expression in HEK293 cells
Experiment: Ablation of luciferase reporter by FokI ablators co-transfected into HEK293 cells (Dual Luciferase assay)
Type: cell-based, human
Settings: for ablation of Luc reporter with increasing concentration of ablator expression plasmid: 6.25, 12.5, 25, 50 and 100 ng expression plasmid cotransfected with 50 ng pCMV.Luciferase; for expression of the luciferase reporter gene: FIG. 18A: 50 ng pCMV.Luciferase + 200 ng pCMV.FokI, or + transfected FokI protein
Method: Open reading frames encoding for various endonucleases were codon optimized and de novo synthesized by GeneArt. Ablator expression and target plasmids were produced using standard molecular biological cloning techniques. Transfections were performed in HEK293 cells using Lipofectamine™ 2000 transfection reagent (Life Technologies). All transfections were performed using optimal transfection conditions as defined in transfection reagent protocol. Briefly, 200-250 ng plasmid DNA (excluding transfection control plasmid) was complexed with Lipofectamine™ 2000 transfection reagent and added to cells in 96 well plates. DNA quantities were consistent across all conditions by supplementation with an unrelated plasmid containing the same promoter as test plasmids. Transfection complexes were incubated with cells for 4-6 hours as transfection reagent protocol before the addition of FBS supplemented media. Transfected cells were incubated at 37° C. for 24-72 hours. Following incubation, cells were assayed for reporter gene expression using Promega Dual Luciferase detection kit according to the manufacturer's instructions on a BioTek Clarity platereader and renilla luciferase was used to control for transfection efficiency. All samples were performed in quadruplicate and standard errors of the mean were calculated.
The amino acid sequence of the FokI enzyme is provided in SEQ ID NO: 12, wherein amino acids 1 to 387 are the DNA binding domain and amino acids 387 to 584 are the catalytic domain. The codon optimized FokI sequence is provided in SEQ ID NO:1.
In a dose-dependent experiment, the FokI expression vector contained the FokI catalytic domain fused to a zinc finger DNA binding domain (ZFHD). This construct, which is 963 bp, is provided in SEQ ID NO: 21 and is composed of base pairs 1 to 366 bp ZFHD, 367 to 372 bp linker, and 373 to 963 bp FokI catalytic domain. The resulting expression product comprises amino acids 1 to 122 (ZFHD), amino acids 123-124 are a linker and amino acids 125 to 321 are from the FokI catalytic domain. […] No ablation sites were required to be engineered into the transcription unit containing the transgene in this illustration, as luciferase contains multiple native FokI sites.
The plasmid contructs in this example contains either the FokI catalytic domain (198 amino acids (SEQ ID NO: 14), corresponding to amino acids 387 to 584 of the full-length protein) (untethered FokI) or a ZFHD-Fokl catalytic domain of 963 bp as described in Part A above (tethered FokI). Even at the highest concentration, the catalytic domain of FokI which is un-tethered to DNA does have no effect on expression of Luc reporter gene (FIG. 19A).
The HTH-FokI Catalytic domain (SEQ ID NO:5), is composed of 1-171 bp HTH from Gin (a serine recombinase), a linker (bp 172-177), and a FokI catalytic domain (178-768 bp) derived from codon-optimized FokI. The resulting chimeric enzyme (SEQ ID NO: 6) contains aa 1-57 of HTH from Gin, a linker (aa 58-59), and a FokI catalytic domain (amino acids 60-256).

Molecule	ablation of Luc reporter with increasing concentration of ablator expression plasmid	expression of the luciferase reporter gene	other results
ZFHD-FokI: FokI catalytic domain fused to a zinc finger homeodomain DNA binding domain (ZFHD), 963 bp, SEQ ID NO: 21	dose dependent ablation	–	ablation of Luc reporter with increasing concentration of ablator expression plasmid (listed as ZF-HD-FokI): effectively ablated
untethered FokI: FokI catalytic domain alone, 198 amino acids (SEQ ID NO: 14), un-tethered to DNA (protein) MKQLVKSELEEKKSELRHKLKYVPHEYIELIEIARNPTQDRILEMKVMEFFMKVYGYRGEHLGGSRKPDGAIYTVGSPIDYGVIVDTKAYSGGYNLPIGQADEMQRYVEENQTRNKHINPNEWWKVYPSSVTEFKFLFVSGHFKGNYKAQLTRLNHITNCNGAVLSVEELLIGGEMIKAGTLTLEEVRRKFNNGEINF	no effect	–	–
wild-type FokI: full-length FokI enzyme (SEQ ID NO: 12) expressed from a cotransfected codon optimized plasmid (protein) MFLSMVSKIRTFGWVQNPGKFENLKRVVQVFDRNSKVHNEVKNIKIPTLVKESKIQKELVAIMNQHDLIYTYKELVGTGTSIRSEAPCDAIIQATIADQGNKKGYIDNWSSDGFLRWAHALGFIEYINKSDSFVITDVGLAYSKSADGSAIEKEILIEAISSYPPAIRILTLLEDGQHLTKFDLGKNLGFSGESGFTSLPEGILLDTLANAMPKDKGEIRNNWEGSSDKYARMIGGWLDKLGLVKQGKKEFIIPTLGKPDNKEFISHAFKITGEGLKVLRRAKGSTKFTRVPKRVYWEMLATNLTDKEYVRTRRALILEILIKAGSLKIEQIQDNLKKLGFDEVIETIENDIKGLINTGIFIEIKGRFYQLKDHILQFVIPNRGVGTKQLVKSELEEKKSELRHKLKYVPHEYIELIEIARNPTQDRILEMKVMEFFMKVYGYRGEHLGGSRKPDGAIYTVGSPIDYGVIVDTKAYSGGYNLPIGQADEMQRYVEENQTRNKHINPNEWWKVYPSSVTEFKFLFVSGHFKGNYKAQLTRLNHITNCNGAVLSVEELLIGGEMIKAGTLTLEEVRRKFNNGEINF	–	effective ablated	–
NLS-HTH-FokI: HTH-FokI fusion which further has a heterologous NLS at its N-terminus (protein, modified enzyme from SV40, Gin and FokI, HTH-FokI fusion which further has a heterologous NLS at its N-terminus) MPKKKRKVGRPPRLTKAEWEQAGRLLAQGIPRKQVALIYDVALSTLYKKHPAKRAHIENDDRINGTKQLVKSELEEKKSELRHKLKYVPHEYIELIEIARNPTQDRILEMKVMEFFMKVYGYRGEHLGGSRKPDGAIYTVGSPIDYGVIVDTKAYSGGYNLPIGQADEMQRYVEENQTRNKHINPNEWWKVYPSSVTEFKFLFVSGHFKGNYKAQLTRLNHITNCNGAVLSVEELLIGGEMIKAGTLTLEEVRRKFNNGEINF	–	–	activity of HTH-FokI after adding heterologous NLS at the N-terminus (6.25-100 ng expression plasmid with 50 ng pCMV.Luciferase, separate experiment): further improved
FokI protein: FokI protein delivered (transfected) to the cells (protein, UniProt P14870 2-579, looked up) Type II restriction enzyme …: VSKIRTFGWVQNPGKFENLKRVVQVFDRNSKVHNEVKNIKIPTLVKESKIQKELVAIMNQHDLIYTYKELVGTGTSIRSEAPCDAIIQATIADQGNKKGYIDNWSSDGFLRWAHALGFIEYINKSDSFVITDVGLAYSKSADGSAIEKEILIEAISSYPPAIRILTLLEDGQHLTKFDLGKNLGFSGESGFTSLPEGILLDTLANAMPKDKGEIRNNWEGSSDKYARMIGGWLDKLGLVKQGKKEFIIPTLGKPDNKEFISHAFKITGEGLKVLRRAKGSTKFTRVPKRVYWEMLATNLTDKEYVRTRRALILEILIKAGSLKIEQIQDNLKKLGFDEVIETIENDIKGLINTGIFIEIKGRFYQLKDHILQFVIPNRGVTKQLVKSELEEKKSELRHKLKYVPHEYIELIEIARNSTQDRILEMKVMEFFMKVYGYRGKHLGGSRKPDGAIYTVGSPIDYGVIVDTKAYSGGYNLPIGQADEMQRYVEENQTRNKHINPNEWWKVYPSSVTEFKFLFVSGHFKGNYKAQLTRLNHITNCNGAVLSVEELLIGGEMIKAGTLTLEEVRRKFNNGEINF	–	partial ablation	–
HTH-FokI: HTH from Gin (a serine recombinase), a linker and FokI catalytic domain, SEQ ID NO: 6 (protein) MGRPPRLTKAEWEQAGRLLAQGIPRKQVALIYDVALSTLYKKHPAKRAHIENDDRINGTKQLVKSELEEKKSELRHKLKYVPHEYIELIEIARNPTQDRILEMKVMEFFMKVYGYRGEHLGGSRKPDGAIYTVGSPIDYGVIVDTKAYSGGYNLPIGQADEMQRYVEENQTRNKHINPNEWWKVYPSSVTEFKFLFVSGHFKGNYKAQLTRLNHITNCNGAVLSVEELLIGGEMIKAGTLTLEEVRRKFNNGEINF	effectively ablated	–	–
